Patent US20210032351A1 (XDCEXPLORER SHANGHAI, published 2021)

B1: Murine anti-75G7 (antibody, V domains shown)
VH: EVQLQQSGPELVKPGASVKIPCKASGYTFTDYNMDWVKQSHGKSLEWIGDINPNNGDTIYNQKFKGKATLTVDKSSSTAYMELRSLTSEDTAVYYCARGDYDGYYPVYYAMDYWGQGTSVTVSS
VL: ENVLTQSPAIMSASPGEKVTMTCRASSSVSSSYLHWYQQKSGASPKLWIFSTSNLAAGVPARFSGSGSGTSYSLTVSSVEAEDAATYYCQQYSGYPLTFGAGTKLELK
notes: murine hybridoma antibody; also called 75G7C6
B2: Chimeric antibody 75G7 (antibody, human IgG1, V domains shown)
VH: B1 VH
VL: B1 VL
notes: also called c75G7C6; chimeric antibody c75G7C6

How the values were obtained:
[1] = target: T1, human EGFRvIII-hFc protein (human, UniProt P00533 25-645); experiment: ELISA, coated EGFRvIII-hFc, antibody 0.1 nM
T1 construct: extracellular domain; made in HEK293 cells, purified on protein A; also called immunogen A; hFc-tagged EGFRvIII protein; not shown: human IgG Fc fragment (hFc) of the pCpC vector
In short: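 EGFRvIII-hFc coated at 1.0 μg/mL in PBS overnight at 4° C, blocked with PBS/0.01% Tween20/1% BSA for 2 h at room temperature. Purified anti-EGFRvIII antibody bound 2 h at 37° C, then HRP-labeled secondary 2 h at 37° C. TMB developed 30 min, stopped with 1.0N HCl, A450 nm read.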

[2] = target: T2, human EGFR protein (wild-type), on cells (human, UniProt P00533 25-1210); experiment: FACS on A431 cells (wild-type EGFR), Alexa 488 secondary antibody, mean fluorescence intensity
T2 construct: whole, on cells; transfected on CHO-K1 cells; endogenous on the human cell lines; the cell is named under assay; also called wild-type EGFR; hEGFR
Description: The cells are washed twice with the HBSS buffer and are counted, and then the cells are diluted with the HBSS buffer to 2×10⁶ cells/ml, added with 1% goat serum blocking solution, with the percentage being the mass percentage, and incubated on ice for 30 minutes, and then centrifugally washed twice with the HBSS buffer. The collected cells are suspended to 2×10⁶ cells/mL with an FACS buffer (HBSS+1% BSA, with the percentage being the mass percentage), added to a 96-well FACS reaction plate at 100 μL/well, then added with 100 μL/well of the purified EGFRvIII antibody (samples to be tested) obtained in example 2, and incubated on ice for 2 hours. The plate is centrifugally washed twice with the FACS buffer, added with 100 μL/well of a fluorescence (Alexa 488) labeled secondary antibody (purchased from Invitrogen), and then incubated on ice for 1 hour. […] The cells are suspended in 100 μL of the FACS buffer, and the results are detected and analyzed by FACS (FACS Calibur, purchased from BD). Data analysis is performed by using the software (CellQuest) to obtain the mean fluorescence intensity (MFI) of the cells. Data is further analyzed by using the software (GraphPad Prism5) to perform data fitting and calculate EC50. […]

[3] = target: T3, human EGFRvIII protein on the cell surface (human, UniProt P00533 25-1210); experiment: FACS on CHOk1-EGFRvIII cells
T3 construct: whole, on cells; the cell line is named under assay; also called hEGFRvIII; U87MG-hEGFRvIII
Description: The desired cells are subjected to an expanded culture to 90% confluence in a T-75 cell culture flask; the medium is sucked out, and the cells are washed twice with a HBSS buffer (Hanks Balanced Salt Solution) (purchased from Invitrogen), and then treated with an enzyme-free cell dissociation solution (Versene solution: purchased from Life Technology) and collected. The cells are washed twice with the HBSS buffer and are counted, and then the cells are diluted with the HBSS buffer to 2×10⁶ cells/ml, added with 1% goat serum blocking solution, with the percentage being the mass percentage, and incubated on ice for 30 minutes, and then centrifugally washed twice with the HBSS buffer. The collected cells are suspended to 2×10⁶ cells/mL with an FACS buffer (HBSS+1% BSA, with the percentage being the mass percentage), added to a 96-well FACS reaction plate at 100 μL/well, then added with 100 μL/well of the purified EGFRvIII antibody (samples to be tested) obtained in example 2, and incubated on ice for 2 hours. The plate is centrifugally washed twice with the FACS buffer, added with 100 μL/well of a fluorescence (Alexa 488) labeled secondary antibody (purchased from Invitrogen), and then incubated on ice for 1 hour. The plate is centrifugally washed 3 times with the FACS buffer, added with 100 μL/well of a fixing solution [4% (v/v) paraformaldehyde] for suspending the cells, and centrifugally washed twice with the FACS buffer after 10 minutes. The cells are suspended in 100 μL of the FACS buffer, and the results are detected and analyzed by FACS (FACS Calibur, purchased from BD). Data analysis is performed by using the software (CellQuest) to obtain the mean fluorescence intensity (MFI) of the cells. Data is further analyzed by using the software (GraphPad Prism5) to perform data fitting and calculate EC50. […] A431 cells (human epidermal cell cancer cell lines) have a large amount of wild-type EGFR protein expressed on the surface thereof.

OD450 nm [1]	EC50 (read off the curve) [2]	EC50 [3]	Maximum mean fluorescence intensity [3]	Binder
0.07	~10 nM	–	–	B1
–	–	10.5 nM	112000 MFI	B2
